In publication PMC2888818:

Target: LetA (UniProt Q8KQL1 1-219)
Assay: EMSA

Binder	binding result
rsmZ upstream 35mer (dsDNA) DNA 1: GTAATTGATGTAAGAAATTTCTCAATTCCATAGA DNA 2: TCTATGGAATTGAGAAATTTCTTACATCAATTAC	binds
rsmY upstream 35mer (dsDNA) DNA 1: CTCTTCTTAATTGAGAAATTTCTTACATATTACTGC DNA 2: GCAGTAATATGTAAGAAATTTCTCAATTAAGAAGAG	binds
